This note sets out measurements from US20260234269A1 (TRUEBINDING, published 2026).

Assay [1] addresses T1, Human Galectin-3 protein (Acro Biosystems, GA3-H5129) (human, UniProt P17931 2-250).
T1 construct: Bought protein; also called hGal3; Gal3; not shown: linker-spaced 6-histidine tag
As to the kind of experiment: ELISA, hGal3 coated, antibody 3 ug/mL, competitor hTIM3. (In general: In an ELISA, binding on a coated surface is turned into a signal by an enzyme label.)

In assay [2] the target is T1, Human Galectin-3 protein (Acro …). As to the kind of experiment: SPR Biacore T200, antibody captured, Galectin-3 analyte. (In general: In SPR one partner is held on a chip, and binding of the other changes the refractive index at the surface.)
Assay [3] deals with T2, hGal3 peptide 8 (human).
T2 peptide: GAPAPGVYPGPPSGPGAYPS
The experiment in a line: peptide ELISA, 20-mer library (Epitope Mapping).

Assay [4] concerns the target T3, hGal3 peptide 1 (human).
T3 construct: also called peptide 1 of Gal3
T3 peptide: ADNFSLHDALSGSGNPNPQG
The experiment in a line: peptide ELISA, 20-mer library (Epitope Mapping).

Assay [5] concerns the target T4, hGal3 peptide 7 (human).
T4 peptide: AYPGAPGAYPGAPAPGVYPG
As to the kind of experiment: peptide ELISA, 20-mer library (Epitope Mapping).

In assay [6] the target is T5, hGal3 peptide 2 (human).
T5 peptide: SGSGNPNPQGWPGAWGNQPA
As to the kind of experiment: peptide ELISA, 20-mer library (Epitope Mapping).

Assay [7] deals with T3, hGal3 peptide 1. The experiment in a line: dot blot, 20 ug peptide per dot, anti-mIgG HRP.
The target of assay [8] is T6, hGal3 peptide 4 (human).
T6 peptide: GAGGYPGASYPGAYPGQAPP
The experiment in a line: dot blot, 20 ug peptide per dot, anti-mIgG HRP.

Assay [9] addresses T4, hGal3 peptide 7. The experiment in a line: dot blot, 20 ug peptide per dot, anti-mIgG HRP.
For assay [10], the target named is T5, hGal3 peptide 2. As to the kind of experiment: dot blot, 20 ug peptide per dot, anti-mIgG HRP.
The target in assay [11] is T7, mouse Gal3 on mouse cells (B16F10 tumor cells, RAW264.7 macrophages) (mouse, UniProt P16110 2-264).
T7 construct: whole, on cells; also called mGal3; Gal3 on RAW cells
T7 sequence (P16110 2-264, one chain of several): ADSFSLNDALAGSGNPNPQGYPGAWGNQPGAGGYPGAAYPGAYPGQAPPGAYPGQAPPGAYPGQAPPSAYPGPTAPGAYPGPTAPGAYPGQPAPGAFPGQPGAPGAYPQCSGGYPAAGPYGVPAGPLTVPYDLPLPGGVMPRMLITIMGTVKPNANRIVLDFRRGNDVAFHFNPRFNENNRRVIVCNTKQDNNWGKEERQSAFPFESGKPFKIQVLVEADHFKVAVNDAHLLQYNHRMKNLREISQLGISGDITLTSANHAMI
The experiment in a line: flow cytometry, RAW cells, IMT001 10 ug/ml. (Flow cytometry measures light scatter and fluorescence of single cells or particles in a stream.)

Assay [12] has as its target T8, mouse Gal3 protein (BioLegend) (mouse, UniProt P16110 2-264, limits assumed).
T8 construct: also called mGal3
The experiment in a line: ELISA, mGal3 coated, mouse TIM-3 Fc.

In assay [13] the target is T9, Flag-tagged human Gal3 protein on A20 cells (A20 Gal3 cells) (human, UniProt P17931 2-250).
T9 construct: also called A20 cells overexpressing human Gal3; not shown: Flag tag
The experiment in a line: flow cytometry, A20 Gal3 cells, anti-hFc APC.

Broadly, the Kd is the free concentration of one partner at which half of the binding sites on the other are occupied at equilibrium, for simple one-to-one binding. A lower Kd goes with a tighter complex.

T1 sequence (P17931 2-250): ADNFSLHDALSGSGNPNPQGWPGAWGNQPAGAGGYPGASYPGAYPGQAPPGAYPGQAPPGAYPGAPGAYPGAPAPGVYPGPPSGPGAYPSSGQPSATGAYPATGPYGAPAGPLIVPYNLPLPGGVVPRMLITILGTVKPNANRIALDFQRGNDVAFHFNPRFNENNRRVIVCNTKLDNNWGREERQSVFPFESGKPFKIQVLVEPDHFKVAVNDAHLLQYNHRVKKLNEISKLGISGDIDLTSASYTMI
T8 sequence (P16110 2-264 limits assumed): as the sequence (P16110 2-264, one chain of several) above

B1: 20D11.2C6 (antibody, V domains shown)
VH: EVQLQQSGPELVKPGASVKISCKASGYTFTDFYINWVKQSHGKSLEWIGDINPKNGGINYNPKFKIKATLTVDKSSSTSYMDLRGLTSEDSAVYYCTSGYGFPYWGQGTLVTVSA
VL: DIQMNQSPSSLSASLGDTITITCRASQNIYIWLSWYQQKPGNIPKLLIYKASNLHTGVPSRFSGSGSGTDFTLTISTLQPEDIATYFCLQGQSYPLTFGAGTKLEMK
notes: murine antibody
B1: in assay [1], the “GAL3-TIM3 Blocking @ 3 ug/mL” value was found to be 40%. Further, the Kd in assay [2] was found to be 27.8 nM. For the same molecule, the binding result in [3], in assay [4] and in assay [5] was “binds” each time.

B2: 15G7.2A7 (antibody, V domains shown)
VH: EVQLQQSGPELVKPGASVKISCKASGYTFTDYYMNWVKQSHGKSLEWIGDINPNNGGTNYNQKFKGKATLTVDKSSSTAYMELRSLTSEDSAVYYCTSGYGFPYWGQGTLVTVSA
VL: DIQMNQSPSSLSASLGDTISITCRASQNINIWLSWYQQKPGNIPQLLIYKASNLHTGVPSRFSGSGSGTDFTLTISSLQPEDIATYYCLQGQSYPLTFGAGTKLVMK
notes: murine antibody
In the case of B2, the “GAL3-TIM3 Blocking @ 3 ug/mL” value in assay [1] was 48%. Besides, the Kd in assay [2] stood at 11.3 nM. Besides, the binding result in assay [3], in assay [4] and in assay [5] was “binds” throughout.

B3: 7D8.2D8 (antibody, V domains shown)
VH: EVQLVESGGGLVKPGGSLKLSCAASGFTFSSYAMSWVRQTPEKRLEWVATISDGGIYTYYPDNVKGRFTISRDNAKNNLFLQMSHLKSEDTAMYYCVRDGGYWGQGTTLTVSS
VL: DVLMTQTPLSLPVSLGDQASISCRSSQSIVHSNGNTYLEWYLQKPGQSPKLLIYKVSNRFSGVPDRFSGSGSGTDFTLKISRVEAEDLGVYYCFQGSHVPLTFGAGTKLELK
notes: murine antibody
As to B3, the “GAL3-TIM3 Blocking @ 3 ug/mL” value in assay [1] is 12%. In [2], the Kd was determined as 2.49 nM. In addition, the binding result in assay [5] and in [6] was “binds” each time.

B4: 15F10.2D6 (antibody, V domains shown)
VH: EVQLVESGGGLVKPGGSLKLSCAASGFAFSSYAMSWVRQTPEKRLEWVATISDGGVYTYYTDHVKGRFTISRDNAEDNLYLQMSHLKSEDTAMYYCVRDGGYWGQGTTLTVSS
VL: DVLMTQTPLSLPVSLGDQASISCRSSQSIVHNNGNTYLEWYLQKPGQSPKLLIYKVSNRFSGVPDRFSGSGSGTDFTLKISRVEAEDLGVYYCFQGSHVPLTFGGGTKLELK
notes: murine antibody
Regarding B4, the “GAL3-TIM3 Blocking @ 3 ug/mL” value in assay [1] was 19%. For the same molecule, in assay [2], binding was characterised by a dissociation constant (Kd) of 2.06 nM. Besides, the binding result in assay [5] and in [6] was “binds” each time.

B5: mIMT001 (IMT001) (antibody, V domains shown)
VH: QIQLVQSGPELKKPGETVKISCKASGYTFTNYGMNWVKQAPGKGLKWMGWINTNTGEPTYVEEFKGRFAFSLETSASTAYLQINNLKNEDTATYFCAPYDNFFAYWGQGTLVTVSA
VL: DIVITQDELSNPVTSGESVSISCRSSKSLLYKDGKTYLNWFLQRPGQSPQLLIYLMSTHASGVSDRFSGSGSGTDFTLEISRVKAEDVGVYYCQQLVDYPLTFGAGTKLELK
notes: treated here as one molecule; also called mAb IMT001; Gal3 antibody clone IMT001
For B5, the binding result in assay [7], in assay [8], in assay [9] and in assay [10] was “no binding (tested: 1 ug/ml)” in each case. Further, the “GAL3-TIM3 Blocking @ 3 ug/mL” value in [1] was found to be 80%. This molecule had a Kd in [2] of 1.67 nM. The “MFI, fold over isotype control antibody” value in [11] was over 10 fold.

B6: mouse TIM-3 Fc protein (R&D systems) (Fc fusion, UniProt Q8VIM0 20-191, looked up)
chain: RSLENAYVFEVGKNAYLPCSYTLSTPGALVPMCWGKGFCPWSQCTNELLRTDERNVTYQKSSRYQLKGDLNKGDVSLIIKNVTLDDHGTYCCRIQFPGLMNDKKLELKLDIKAAKVTPAQTAHGDSTTASPRTLTTERNGSETQTLVTLHNNNGTKISTWADEIKDSGETIR
notes: also called mTIM-3 Fc; mTIM-3-Fc; not shown: Fc, detected with anti-human Fc / anti-human IgG
With B6, the binding result in assay [12] and in assay [13] was “binds” each time.
